Assay results reported in patent US20110142868A1 (CHIRALIX B V, published 2011).
Numbered stars: 1 amine (or outer) side, 2 acyl side, 3 side chain; on linkers, the order of the positions; unused ones are H or OH. Square brackets hold non-standard residues; d marks the D form. Orn(CA) = ornithine chloroamidine, O(CA), N=C(CCl)NCCC[C@H](N[*:1])C(=O)[*:2]; Orn(fluoroacetimidoyl) = N=C(CF)NCCC[C@H](N)C(=O)O

Columns and labels:
recombinant human PAD2 = recombinant human PAD2 (human, UniProt Q9Y2J8 1-665); assay: cell-based or functional assay
recombinant human PAD2, sequence (Q9Y2J8 whole entry): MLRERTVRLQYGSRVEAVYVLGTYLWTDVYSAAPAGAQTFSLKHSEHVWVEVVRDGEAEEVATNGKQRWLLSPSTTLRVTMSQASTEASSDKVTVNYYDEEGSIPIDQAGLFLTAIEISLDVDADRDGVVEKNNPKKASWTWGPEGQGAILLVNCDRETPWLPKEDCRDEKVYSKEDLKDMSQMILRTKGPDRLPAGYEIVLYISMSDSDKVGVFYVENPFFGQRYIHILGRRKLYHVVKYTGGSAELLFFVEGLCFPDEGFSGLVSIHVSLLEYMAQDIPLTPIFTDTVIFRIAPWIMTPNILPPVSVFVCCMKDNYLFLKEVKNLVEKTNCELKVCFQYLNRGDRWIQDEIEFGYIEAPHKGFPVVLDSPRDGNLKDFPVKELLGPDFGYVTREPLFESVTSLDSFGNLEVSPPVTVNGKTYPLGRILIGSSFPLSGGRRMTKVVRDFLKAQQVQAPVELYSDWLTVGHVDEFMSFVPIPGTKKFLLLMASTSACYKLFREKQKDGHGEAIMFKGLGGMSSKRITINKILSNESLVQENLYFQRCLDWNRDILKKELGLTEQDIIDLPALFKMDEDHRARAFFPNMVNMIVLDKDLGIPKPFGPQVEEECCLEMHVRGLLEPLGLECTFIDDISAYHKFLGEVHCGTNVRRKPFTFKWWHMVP

recombinant human PAD4 = recombinant human PAD4 (human, UniProt Q9UM07 1-663); assay: cell-based or functional assay
recombinant human PAD4, sequence (Q9UM07 whole entry): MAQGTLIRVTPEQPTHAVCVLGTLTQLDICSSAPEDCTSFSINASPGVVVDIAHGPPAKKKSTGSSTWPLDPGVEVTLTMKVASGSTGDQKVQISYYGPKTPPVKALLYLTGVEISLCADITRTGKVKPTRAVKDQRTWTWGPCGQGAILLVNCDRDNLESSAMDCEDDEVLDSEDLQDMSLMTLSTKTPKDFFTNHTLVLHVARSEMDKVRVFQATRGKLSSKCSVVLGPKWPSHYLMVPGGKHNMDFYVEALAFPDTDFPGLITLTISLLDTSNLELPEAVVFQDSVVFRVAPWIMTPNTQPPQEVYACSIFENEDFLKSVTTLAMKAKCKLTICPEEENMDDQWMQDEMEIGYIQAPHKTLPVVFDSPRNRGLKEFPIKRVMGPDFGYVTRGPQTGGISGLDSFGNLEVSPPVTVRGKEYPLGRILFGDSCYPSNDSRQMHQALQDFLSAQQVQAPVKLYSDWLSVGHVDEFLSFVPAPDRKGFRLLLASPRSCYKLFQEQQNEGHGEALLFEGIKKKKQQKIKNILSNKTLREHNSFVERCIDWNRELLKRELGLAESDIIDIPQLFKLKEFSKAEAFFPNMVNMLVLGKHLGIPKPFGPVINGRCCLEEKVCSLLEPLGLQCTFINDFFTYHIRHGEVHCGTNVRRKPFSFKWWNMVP

conversion of 0708-30 by PAD2, 10 µM inhibitor (recombinant human PAD2) [%]	conversion of 0708-30 by PAD2, 50 µM inhibitor (recombinant human PAD2) [%]	conversion of 0708-30 by PAD2, 100 µM inhibitor (recombinant human PAD2) [%]	conversion of 0708-30 by PAD4, 10 µM inhibitor (recombinant human PAD4) [%]	conversion of 0708-30 by PAD4, 50 µM inhibitor (recombinant human PAD4) [%]	conversion of 0708-30 by PAD4, 100 µM inhibitor (recombinant human PAD4) [%]	Binder
62	44	31	74	34	25	Ac-DSHKFD[Orn(CA)]DFIYSD-NH2 (SMILES CC[C@H](C)[C@H](NC(=O)[C@H](Cc1ccccc1)NC(=O)[C@H](CC(=O)O)NC(=O)[C@H](CCCNC(=N)CCl)NC(=O)[C@H](CC(=O)O)NC(=O)[C@H](Cc1ccccc1)NC(=O)[C@H](CCCCN)NC(=O)[C@H](Cc1c[nH]cn1)NC(=O)[C@H](CO)NC(=O)[C@H](CC(=O)O)NC(C)=O)C(=O)N[C@@H](Cc1ccc(O)cc1)C(=O)N[C@@H](CO)C(=O)N[C@@H](CC(=O)O)C(N)=O) [0741-05CA]
54	24	15	55	22	14	Ac-DSHKFD[Orn(fluoroacetimidoyl)]DFIYSD-NH2 (SMILES CC[C@H](C)[C@H](NC(=O)[C@H](Cc1ccccc1)NC(=O)[C@H](CC(=O)O)NC(=O)[C@H](CCCNC(=N)CF)NC(=O)[C@H](CC(=O)O)NC(=O)[C@H](Cc1ccccc1)NC(=O)[C@H](CCCCN)NC(=O)[C@H](Cc1c[nH]cn1)NC(=O)[C@H](CO)NC(=O)[C@H](CC(=O)O)NC(C)=O)C(=O)N[C@@H](Cc1ccc(O)cc1)C(=O)N[C@@H](CO)C(=O)N[C@@H](CC(=O)O)C(N)=O) [0741-05FA]
69	47	50	68	55	26	Ac-FFDSHKLH[Orn(CA)]EWMWSD-NH2 (SMILES CSCC[C@H](NC(=O)[C@H](Cc1c[nH]c2ccccc12)NC(=O)[C@H](CCC(=O)O)NC(=O)[C@H](CCCNC(=N)CCl)NC(=O)[C@H](Cc1c[nH]cn1)NC(=O)[C@H](CC(C)C)NC(=O)[C@H](CCCCN)NC(=O)[C@H](Cc1c[nH]cn1)NC(=O)[C@H](CO)NC(=O)[C@H](CC(=O)O)NC(=O)[C@H](Cc1ccccc1)NC(=O)[C@H](Cc1ccccc1)NC(C)=O)C(=O)N[C@@H](Cc1c[nH]c2ccccc12)C(=O)N[C@@H](CO)C(=O)N[C@@H](CC(=O)O)C(N)=O) [0741-04CA]
63	45	48	74	64	50	Ac-DSKKHD[Orn(CA)]DFLYSD-NH2 (SMILES CC(=O)N[C@@H](CC(=O)O)C(=O)N[C@@H](CO)C(=O)N[C@@H](CCCCN)C(=O)N[C@@H](CCCCN)C(=O)N[C@@H](Cc1c[nH]cn1)C(=O)N[C@@H](CC(=O)O)C(=O)N[C@@H](CCCNC(=N)CCl)C(=O)N[C@@H](CC(=O)O)C(=O)N[C@@H](Cc1ccccc1)C(=O)N[C@@H](CC(C)C)C(=O)N[C@@H](Cc1ccc(O)cc1)C(=O)N[C@@H](CO)C(=O)N[C@@H](CC(=O)O)C(N)=O) [0741-06CA]
62	24	14	64	28	14	Ac-FFDSHKLH[Orn(fluoroacetimidoyl)]EWMWSD-NH2 (SMILES CSCC[C@H](NC(=O)[C@H](Cc1c[nH]c2ccccc12)NC(=O)[C@H](CCC(=O)O)NC(=O)[C@H](CCCNC(=N)CF)NC(=O)[C@H](Cc1c[nH]cn1)NC(=O)[C@H](CC(C)C)NC(=O)[C@H](CCCCN)NC(=O)[C@H](Cc1c[nH]cn1)NC(=O)[C@H](CO)NC(=O)[C@H](CC(=O)O)NC(=O)[C@H](Cc1ccccc1)NC(=O)[C@H](Cc1ccccc1)NC(C)=O)C(=O)N[C@@H](Cc1c[nH]c2ccccc12)C(=O)N[C@@H](CO)C(=O)N[C@@H](CC(=O)O)C(N)=O) [0741-04FA]
73	42	25	74	43	27	Ac-DSKKHD[Orn(fluoroacetimidoyl)]DFLYSD-NH2 (SMILES CC(=O)N[C@@H](CC(=O)O)C(=O)N[C@@H](CO)C(=O)N[C@@H](CCCCN)C(=O)N[C@@H](CCCCN)C(=O)N[C@@H](Cc1c[nH]cn1)C(=O)N[C@@H](CC(=O)O)C(=O)N[C@@H](CCCNC(=N)CF)C(=O)N[C@@H](CC(=O)O)C(=O)N[C@@H](Cc1ccccc1)C(=O)N[C@@H](CC(C)C)C(=O)N[C@@H](Cc1ccc(O)cc1)C(=O)N[C@@H](CO)C(=O)N[C@@H](CC(=O)O)C(N)=O) [0741-06FA]
57	49	23	62	24	14	Ac-FFDSHKFD[Orn(CA)]DFIYSD-NH2 (SMILES CC[C@H](C)[C@H](NC(=O)[C@H](Cc1ccccc1)NC(=O)[C@H](CC(=O)O)NC(=O)[C@H](CCCNC(=N)CCl)NC(=O)[C@H](CC(=O)O)NC(=O)[C@H](Cc1ccccc1)NC(=O)[C@H](CCCCN)NC(=O)[C@H](Cc1c[nH]cn1)NC(=O)[C@H](CO)NC(=O)[C@H](CC(=O)O)NC(=O)[C@H](Cc1ccccc1)NC(=O)[C@H](Cc1ccccc1)NC(C)=O)C(=O)N[C@@H](Cc1ccc(O)cc1)C(=O)N[C@@H](CO)C(=O)N[C@@H](CC(=O)O)C(N)=O) [0741-03CA]

More lines, now with the values behind:

Binder	conversion of 0708-30 by PAD2, 10 µM inhibitor (recombinant human PAD2) [%]	conversion of 0708-30 by PAD2, 50 µM inhibitor (recombinant human PAD2) [%]	conversion of 0708-30 by PAD2, 100 µM inhibitor (recombinant human PAD2) [%]	conversion of 0708-30 by PAD4, 10 µM inhibitor (recombinant human PAD4) [%]	conversion of 0708-30 by PAD4, 50 µM inhibitor (recombinant human PAD4) [%]	conversion of 0708-30 by PAD4, 100 µM inhibitor (recombinant human PAD4) [%]
Ac-FFDSHKWH[Orn(fluoroacetimidoyl)]DFFYSD-NH2 (SMILES CC(=O)N[C@@H](Cc1ccccc1)C(=O)N[C@@H](Cc1ccccc1)C(=O)N[C@@H](CC(=O)O)C(=O)N[C@@H](CO)C(=O)N[C@@H](Cc1c[nH]cn1)C(=O)N[C@@H](CCCCN)C(=O)N[C@@H](Cc1c[nH]c2ccccc12)C(=O)N[C@@H](Cc1c[nH]cn1)C(=O)N[C@@H](CCCNC(=N)CF)C(=O)N[C@@H](CC(=O)O)C(=O)N[C@@H](Cc1ccccc1)C(=O)N[C@@H](Cc1ccccc1)C(=O)N[C@@H](Cc1ccc(O)cc1)C(=O)N[C@@H](CO)C(=O)N[C@@H](CC(=O)O)C(N)=O) [0741-02FA]	52	17	7	50	20	16
Ac-FFDSHKWH[Orn(CA)]DFFYSD-NH2 (SMILES CC(=O)N[C@@H](Cc1ccccc1)C(=O)N[C@@H](Cc1ccccc1)C(=O)N[C@@H](CC(=O)O)C(=O)N[C@@H](CO)C(=O)N[C@@H](Cc1c[nH]cn1)C(=O)N[C@@H](CCCCN)C(=O)N[C@@H](Cc1c[nH]c2ccccc12)C(=O)N[C@@H](Cc1c[nH]cn1)C(=O)N[C@@H](CCCNC(=N)CCl)C(=O)N[C@@H](CC(=O)O)C(=O)N[C@@H](Cc1ccccc1)C(=O)N[C@@H](Cc1ccccc1)C(=O)N[C@@H](Cc1ccc(O)cc1)C(=O)N[C@@H](CO)C(=O)N[C@@H](CC(=O)O)C(N)=O) [0741-02CA]	67	32	18	63	31	19
Ac-FFDSKHFD[Orn(CA)]EWIWSD-NH2 (SMILES CC[C@H](C)[C@H](NC(=O)[C@H](Cc1c[nH]c2ccccc12)NC(=O)[C@H](CCC(=O)O)NC(=O)[C@H](CCCNC(=N)CCl)NC(=O)[C@H](CC(=O)O)NC(=O)[C@H](Cc1ccccc1)NC(=O)[C@H](Cc1c[nH]cn1)NC(=O)[C@H](CCCCN)NC(=O)[C@H](CO)NC(=O)[C@H](CC(=O)O)NC(=O)[C@H](Cc1ccccc1)NC(=O)[C@H](Cc1ccccc1)NC(C)=O)C(=O)N[C@@H](Cc1c[nH]c2ccccc12)C(=O)N[C@@H](CO)C(=O)N[C@@H](CC(=O)O)C(N)=O) [0741-01CA]	69	38	23	63	31	17
Ac-FFDSKHFD[Orn(fluoroacetimidoyl)]EWIWSD-NH2 (SMILES CC[C@H](C)[C@H](NC(=O)[C@H](Cc1c[nH]c2ccccc12)NC(=O)[C@H](CCC(=O)O)NC(=O)[C@H](CCCNC(=N)CF)NC(=O)[C@H](CC(=O)O)NC(=O)[C@H](Cc1ccccc1)NC(=O)[C@H](Cc1c[nH]cn1)NC(=O)[C@H](CCCCN)NC(=O)[C@H](CO)NC(=O)[C@H](CC(=O)O)NC(=O)[C@H](Cc1ccccc1)NC(=O)[C@H](Cc1ccccc1)NC(C)=O)C(=O)N[C@@H](Cc1c[nH]c2ccccc12)C(=O)N[C@@H](CO)C(=O)N[C@@H](CC(=O)O)C(N)=O) [0741-01FA]	69	29	14	63	24	15
